Here are results for four molecules from patent US20230049152A1 (Genentech, published 2023).

In assay [1] the target is T1, human CCR4 (human, UniProt P51679 1-360).
T1 construct: whole, on cells; transiently expressed on HEK293 cells
T1 sequence (looked up): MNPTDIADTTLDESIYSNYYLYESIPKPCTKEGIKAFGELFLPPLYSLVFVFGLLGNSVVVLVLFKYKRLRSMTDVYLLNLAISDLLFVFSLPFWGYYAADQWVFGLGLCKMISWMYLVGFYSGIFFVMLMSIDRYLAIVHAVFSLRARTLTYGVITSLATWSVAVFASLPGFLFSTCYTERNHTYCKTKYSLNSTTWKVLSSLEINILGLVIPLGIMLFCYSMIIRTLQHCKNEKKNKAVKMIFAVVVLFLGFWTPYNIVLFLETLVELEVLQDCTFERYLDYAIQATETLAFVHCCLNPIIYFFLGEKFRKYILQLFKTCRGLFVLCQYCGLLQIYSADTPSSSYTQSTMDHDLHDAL
As to the kind of experiment: flow cytometry, HEK293 with N-term FLAG-tagged human CCR4. From the text:
FIGS. 4A-4F depicts the binding data of hu.Ab3.H1L1 (FIG. 4A), hu.Ab4.H1L1 (FIG. 4B), and hu.Ab5.H1L1 (FIG. 4C), as well as the commercial anti-CCR8 mAbs murine anti-human CCR8 mAb 433H (BD Biosciences) (FIG. 4D), and murine anti-human CCR8 mAb L263G8 (Biolegend) (FIG. 4E), and the humanized anti-human Yoshida anti-CCR8 mAb (FIG. 4F), to HEK293 cells that were transiently transfected with N-term FLAG-tagged plasmids encoding for human GPCRs (CCR2, CCR3, CCR4, CCR5, CCR8, CXCR4, ACKR2, and ACKR4), hCCR8 constructs, or with a mock construct using transIT X2 (reagent:DNA=3:1).
To confirm the selectivity to CCR8, the binding of hu.Ab3.H1L1, hu.Ab4.H1L1, and hu.Ab5.H1L1, as well as the Yoshida humanized anti-human CCR8, murine anti-human CCR8 mAb L263G8 (Biolegend, Commercial Ab) and murine anti-human CCR8 mAb 433H (BD Biosciences, Commercial Ab), were characterized by flow cytometry on HEK293 cells that were transiently transfected with plasmids encoding for FLAG-tagged other related human GPCRs (CCR2-5, CXCR4, ACKR2, and ACKR4). Cell surface expression of each GPCR was confirmed by staining with an anti-FLAG antibody control. […]
(Flow cytometry measures light scatter and fluorescence of single cells or particles in a stream.)

For assay [2], the target named is T1, human CCR4. As to the kind of experiment: flow cytometry, HEK293 with N-term FLAG-tagged human CCR4, procedure of FIG. 4. The source says:
(§1) To confirm the selectivity to CCR8, the binding of hu.Ab3.H1L1, hu.Ab4.H1L1, and hu.Ab5.H1L1, as well as the Yoshida humanized anti-human CCR8, murine anti-human CCR8 mAb L263G8 (Biolegend, Commercial Ab) and murine anti-human CCR8 mAb 433H (BD Biosciences, Commercial Ab), were characterized by flow cytometry on HEK293 cells that were transiently transfected with plasmids encoding for FLAG-tagged other related human GPCRs (CCR2-5, CXCR4, ACKR2, and ACKR4). Cell surface expression of each GPCR was confirmed by staining with an anti-FLAG antibody control. In particular, HEK293 cells were transfected with N-term FLAG-tagged human CCR2, CCR3, CCR4, CCR5, CXCR4, ACKR2, ACKR4, hCCR8 constructs, or with a Mock construct using transIT X2 (reagent:DNA=3:1) for 24 hours, and surface stained with various anti-hCCR8 monoclonal antibodies at 5 ug/ml, or rabbit anti-Flag pAb (Sigma) followed by AF647-anti-hIgG or AF647-anti-RbIgG respectively. Antibodies hu.Ab4.H1L1, and hu.Ab5.H1L1, only stained the hCCR8-containing cells, confirming their specificity to hCCR8. […] Thus, the CCR8 selective hu.Ab4.H1L1 and hu.Ab5.H1L1 antibodies with the best ADCC activities were carried forward.
(§2) To reconfirm that the Ab4 and Ab5 variants remained selective to CCR8 compared to the corresponding HIL1 variants, binding was analyzed by flow cytometry following the procedure as described for FIG. 4A and FIG. 4B. […]

Another assay addresses T2, human ACKR4 (human, UniProt Q9NPB9 1-350).
T2 construct: whole, on cells; transiently expressed on HEK293 cells
T2 sequence (looked up): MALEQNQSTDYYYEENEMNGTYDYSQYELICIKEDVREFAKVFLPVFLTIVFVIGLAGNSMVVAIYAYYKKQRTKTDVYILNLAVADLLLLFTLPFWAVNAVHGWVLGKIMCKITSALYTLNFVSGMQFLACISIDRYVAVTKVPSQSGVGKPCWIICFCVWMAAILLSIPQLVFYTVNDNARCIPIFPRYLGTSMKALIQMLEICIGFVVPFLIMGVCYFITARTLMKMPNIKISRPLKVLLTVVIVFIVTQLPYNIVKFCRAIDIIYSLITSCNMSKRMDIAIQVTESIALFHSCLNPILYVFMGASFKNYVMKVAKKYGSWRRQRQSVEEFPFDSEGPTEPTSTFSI
The assay is described as follows: flow cytometry, HEK293 with N-term FLAG-tagged human ACKR4, procedure of FIG. 4.
Description: as §1, §2

Another assay deals with T3, human CCR2 (human, UniProt P41597 1-374).
T3 construct: whole, on cells; transiently expressed on HEK293 cells
The assay is described as follows: flow cytometry, HEK293 with N-term FLAG-tagged human CCR2, procedure of FIG. 4.
Description: as §1, §2

The target in the next assay is T4, cyno CCR8 (cynomolgus monkey, UniProt O97665 1-356 (rhesus entry)).
T4 construct: also called cynomolgus monkey CCR8
The assay is described as follows: radioligand competition on CHO cells stably expressing cyno CCR8: fixed 125I-anti-CCR8 against serially diluted unlabelled antibody. How it is done: Cell-based affinity measurements were performed using radiolabeled IgGs and CHO cell lines stably expressing human or cyno CCR8 for hu.Ab5.H13L1 and hu.Ab4.H12L3.
Briefly, stable CHO cells expressing human or cyno CCR8 were seeded in cold binding buffer (Opti-MEM+2% FBS+50 mM HEPES, pH 7.2+0.1% Sodium Azide) at 50,000 cells per well. A fixed concentration of ¹²⁵I-anti-CCR8 radiolabeled using the NEX244 Iodogen method (Perkin Elmer) was mixed with serially diluted anti-CCR8 antibodies starting at 20 nM or 50 nM. The antibody mixture was added to the cells and incubated at room temperature for 12 hours under gentle agitation. The cells and antibodies were then transferred to Millipore multiscreen filter plates. The filter plates were washed 4 times with 250 μL of cold binding buffer and dried for at least 30 minutes and the filters were punched into 5 mL polystyrene tubes. The radioactivity was measured using a Perkin Elmer Wallac Wizard 2470 Gamma Counter set at 1 count per minute with 0.8 counting efficiency. The data were fitted using the heterologous one site-fit Ki competitive binding model in GraphPad Prism.

The target in another assay is human CCR8 (human, UniProt P51685 1-355). The assay is described as follows: cell-based or functional assay.

T3 sequence (P41597 whole entry): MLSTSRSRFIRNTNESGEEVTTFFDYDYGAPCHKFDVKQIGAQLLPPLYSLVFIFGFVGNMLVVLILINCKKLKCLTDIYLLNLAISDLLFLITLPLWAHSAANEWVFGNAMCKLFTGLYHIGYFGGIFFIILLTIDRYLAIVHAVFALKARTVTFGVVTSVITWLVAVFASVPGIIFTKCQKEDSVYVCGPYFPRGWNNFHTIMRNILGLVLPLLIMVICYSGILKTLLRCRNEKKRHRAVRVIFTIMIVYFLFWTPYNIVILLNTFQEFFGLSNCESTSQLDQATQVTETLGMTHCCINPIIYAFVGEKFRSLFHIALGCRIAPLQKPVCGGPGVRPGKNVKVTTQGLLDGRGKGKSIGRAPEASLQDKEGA
T4 sequence (O97665 other isoform, or with tags, fused parts or gaps): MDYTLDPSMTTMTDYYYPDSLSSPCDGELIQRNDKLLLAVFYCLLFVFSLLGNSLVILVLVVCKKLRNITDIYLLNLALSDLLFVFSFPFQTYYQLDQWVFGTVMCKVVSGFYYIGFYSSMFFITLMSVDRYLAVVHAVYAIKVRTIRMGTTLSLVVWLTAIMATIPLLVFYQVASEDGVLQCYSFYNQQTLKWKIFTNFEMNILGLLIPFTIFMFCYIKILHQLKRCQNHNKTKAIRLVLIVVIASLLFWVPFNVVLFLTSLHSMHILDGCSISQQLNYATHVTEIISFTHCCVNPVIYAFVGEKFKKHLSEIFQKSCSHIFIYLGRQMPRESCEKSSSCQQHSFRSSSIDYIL

B1: hu.Ab5.H1L1 (antibody, human IgG1, kappa)
heavy: not shown
light: DIQVTQSPSSLSASVGDRVTITCQASENIANALAWYQQKPGKPPKFLIYGASNLASGVPSRFSGSGSGTDFTFTISSLQPEDIATYYCQQAYYGNSFVEGTFGGGTKVEIKRTVAAPSVFIFPPSDEQLKSGTASVVCLLNNFYPREAKVQWKVDNALQSGNSQESVTEQDSKDSTYSLSSTLTLSKADYEKHKVYACEVTHQGLSSPVTKSFNRGEC
For B1, the binding result in the assay with human CCR4 [1] is reported as “no binding (tested: 5 ug/ml)”.

B2: hu.Ab5.H13L1 (antibody, human IgG1, kappa)
heavy: not shown
light: DIQVTQSPSSLSASVGDRVTITCQASENIANALAWYQQKPGKPPKFLIYGASNLASGVPSRFSGSGSGTDFTFTISSLQPEDIATYYCQQAYYGNSFVEGTFGGGTKVEIKRTVAAPSVFIFPPSDEQLKSGTASVVCLLNNFYPREAKVQWKVDNALQSGNSQESVTEQDSKDSTYSLSSTLTLSKADYEKHKVYACEVTHQGLSSPVTKSFNRGEC
notes: fucosylated human IgG1; also called Ab5 variant
On to B2, for which the binding result with human CCR4 [2], in the assay with human ACKR4 and with human CCR2 was “no binding (tested: 5 ug/ml)” each time. For the same molecule, the “IC50 (read off the curve)” value in the assay with cyno CCR8 is roughly 0.05 nM. Besides, in the assay with human CCR8, the “ADCC EC50, NK-92 F158 cells (FIG. 11A)” value was 0.14 nM. Also, in the assay with human CCR8, the “ADCC EC50, NK-92 V158 cells (FIG. 11B)” value stood at 0.094 nM.

B3: hu.Ab4.H1L1 (antibody, human IgG1, kappa)
heavy: not shown
light: DYQMTQSPSSLSASVGDRVTITCQASQSISSYLSWYQQKPGKRPKLLIYKASTLASGVPSRFSGSGSGTDFTLTISSLQPEDFATYYCQQGYTSSNIDNIFGGGTKVEIKRTVAAPSVFIFPPSDEQLKSGTASVVCLLNNFYPREAKVQWKVDNALQSGNSQESVTEQDSKDSTYSLSSTLTLSKADYEKHKVYACEVTHQGLSSPVTKSFNRGEC
notes: also called hu.Ab4.H1Ll
Consider B3, for which, in the assay with human CCR4 [1], the binding result is reported as “no binding (tested: 5 ug/ml)”.

B4: hu.Ab4.H12L3 (antibody, human IgG1, kappa)
heavy: not shown
light: DYQMTQSPSSLSASVGDRVTITCQASQSISSYLSWYQQKPGKAPKLLIYKASTLASGVPSRFSGSGSGTDFTLTISSLQPEDFATYYCQQGYTSSNIDNIFGGGTKVEIKRTVAAPSVFIFPPSDEQLKSGTASVVCLLNNFYPREAKVQWKVDNALQSGNSQESVTEQDSKDSTYSLSSTLTLSKADYEKHKVYACEVTHQGLSSPVTKSFNRGEC
notes: fucosylated human IgG1; also called huCCR8-Ab4.H12L3.hIgG1; Ab4 variant
B4: the binding result with human CCR4 [2], with human ACKR4 and in the assay with human CCR2 was “no binding (tested: 5 ug/ml)” each time. In addition, the “IC50 (read off the curve)” value with cyno CCR8 is roughly 0.1 nM. The “ADCC EC50, NK-92 F158 cells (FIG. 11A)” value in the assay with human CCR8 came to 0.27 nM. Moreover, the “ADCC EC50, NK-92 V158 cells (FIG. 11B)” value in the assay with human CCR8 is 0.21 nM.
